Legend:
[1] = target: GFP-CaV2.2 K-R-HA (rabbit) (UniProt Q05152)
GFP-CaV2.2-HA (rabbit) = GFP-CaV2.2-HA (rabbit) (UniProt Q05152)

- Gmax (whole cell conductance) from Boltzmann fits, whole cell patch clamp of tsA-201 cells with CaVα2δ-1, 1 mM Ba2+ [1]: 4.5 nS/pF
- IBa current density at +5 mV, whole cell patch clamp of tsA-201 cells with CaVα2δ-1, 1 mM Ba2+ [1]: 148 pA/pF
- V50 of activation from Boltzmann fits of current density-voltage relationships, whole cell patch clamp of tsA-201 cells with CaVα2δ-1, 1 mM Ba2+ [1]: 1.3 mV
- Gmax (whole cell conductance) from Boltzmann fits, whole cell patch clamp of tsA-201 cells with CaVα2δ-1, 1 mM Ba2+ (GFP-CaV2.2-HA (rabbit)): 7.7 nS/pF
- IBa current density at +5 mV, whole cell patch clamp of tsA-201 cells with CaVα2δ-1, 1 mM Ba2+ (GFP-CaV2.2-HA (rabbit)): 277 pA/pF
- V50 of activation from Boltzmann fits of current density-voltage relationships, whole cell patch clamp of tsA-201 cells with CaVα2δ-1, 1 mM Ba2+ (GFP-CaV2.2-HA (rabbit)): -4.7 mV
Substance: CaVβ1b-GFP (from UniProt P54283 1-597) (natural protein)
